Experimental data taken from doi:10.1101/2020.07.23.218024.
Read-outs that look alike come from different tables or passages of the source.

How the values were obtained:
Assay in all cases: ELISA
[1] = target: GST-PEX14-NTD (human) (UniProt O75381)
[2] = target: microtubules / purified porcine brain tubulin (porcine)
[3] = target: microtubules / purified porcine brain tubulin (porcine); remark: listed apart in the source

Chain of GST-PEX14-NTD (human) (O75381 1-80): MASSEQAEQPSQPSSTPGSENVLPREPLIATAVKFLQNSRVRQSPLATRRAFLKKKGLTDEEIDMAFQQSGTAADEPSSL

## full-length His6-TEV-PEX5S (from UniProt P50542-2 1-602) (natural protein)
[1]
  IC50: 1200 nM

## GST-PEX14-NTD (from UniProt O75381 1-80) (domain or fragment)
[2]
  Kd: 2.1 nM
[3]
  Kd: 0.7 to 2.3 nM

## His-PEX14-NTD (from UniProt O75381 1-80) (domain or fragment)
[2]
  fold weaker affinity than GST-PEX14-NTD/MT: > 100 fold

## monomeric His-tagged Kif5B kinesin motor domain (domain or fragment)
[2]
  Kd: 56.6 nM
